Measurements published in paper PMC10139993.

B1: Fused in sarcoma (FUS) wildtype with N-terminal GFP tag [not stated] / itself (parent)
chain: MASNDYTQQATQSYGAYPTQPGQGYSQQSSQPYGQQSYSGYSQSTDTSGYGQSSYSSYGQSQNTGYGTQSTPQGYGSTGGYGSSQSSQSSYGQQSSYPGYGQQPAPSSTSGSYGSSSQSSSYGQPQSGSYSQQPSYGGQQQSYGQQQSYNPPQGYGQQNQYNSSSGGGGGGGGGGNYGQDQSSMSSGGGSGGGYGNQDQSGGGGSGGYGQQDRGGRGRGGSGGGGGGGGGGYNRSSGGYEPRGRGGGRGGRGGMGGSDRGGFNKFGGPRDQGSRHDSEQDNSDNNTIFVQGLGENVTIESVADYFKQIGIIKTNKKTGQPMINLYTDRETGKLKGEATVSFDDPPSAKAAIDWFDGKEFSGNPIKVSFATRRADFNRGGGNGRGGRGRGGPMGRGGYGGGGSGGGGRGGFPSGGGGGGGQQRAGDWKCPNPTCENMNFSWRNECNQCKAPKPDGPGGGPGGSHMGGNYGDDRRGGRGGYDRGGYRGRGGDRGGFRGGRGGGDRGGFGPGKMDSRGEHRQDRRERPY

Variants of: B1
Experiment: SiMPull photobleaching step analysis
Conditions: with itself, read off a plot

Variant | photobleaching steps (0.4M sorbitol 4 hr) [steps] | photobleaching steps (no stress) [steps] | photobleaching steps (without stress) [steps]
MASNDYTQQATQSYGAYPTQPGQGYSQQSSQPYGQQSYSGYSQSTDTSGYGQSSYSSYGQSQNTGYGTQSTPQGYGSTGGYGSSQSSQSSYGQQSSYPGYGQQPAPSSTSGSYGSSSQSSSYGQPQSGSYSQQPSYGGQQQSYGQQQSYNPPQGYEQQNQYNSSSGGGGGGGGGGNYGQDQSSMSSGGGSGGGYGNQDQSGGGGSGGYGQQDRGGRGRGGSGGGGGGGGGGYNRSSGGYEPRGRGGGRGGRGGMGGSDRGGFNKFGGPRDQGSRHDSEQDNSDNNTIFVQGLGENVTIESVADYFKQIGIIKTNKKTGQPMINLYTDRETGKLKGEATVSFDDPPSAKAAIDWFDGKEFSGNPIKVSFATRRADFNRGGGNGRGGRGRGGPMGRGGYGGGGSGGGGRGGFPSGGGGGGGQQRAGDWKCPNPTCENMNFSWRNECNQCKAPKPDGPGGGPGGSHMGGNYGDDRRGGRGGYDRGGYRGRGGDRGGFRGGRGGGDRGGFGPGKMDSRGEHRQDRRERPY [chain 1 G156E] | 2 | 1.6 | 1.6
MASNDYTQQATQSYGAYPTQPGQGYSQQSSQPYGQQSYSGYSQSTDTSGYGQSSYSSYGQSQNTGYGTQSTPQGYGSTGGYGSSQSSQSSYGQQSSYPGYGQQPAPSSTSGSYGSSSQSSSYGQPQSGSYSQQPSYGGQQQSYGQQQSYNPPQGYGQQNQYNSSSGGGGGGGGGGNYGQDQSSMSSSGGSGGGYGNQDQSGGGGSGGYGQQDRGGRGRGGSGGGGGGGGGGYNRSSGGYEPRGRGGGRGGRGGMGGSDRGGFNKFGGPRDQGSRHDSEQDNSDNNTIFVQGLGENVTIESVADYFKQIGIIKTNKKTGQPMINLYTDRETGKLKGEATVSFDDPPSAKAAIDWFDGKEFSGNPIKVSFATRRADFNRGGGNGRGGRGRGGPMGRGGYGGGGSGGGGRGGFPSGGGGGGGQQRAGDWKCPNPTCENMNFSWRNECNQCKAPKPDGPGGGPGGSHMGGNYGDDRRGGRGGYDRGGYRGRGGDRGGFRGGRGGGDRGGFGPGKMDSRGEHRQDRRERPY [chain 1 G187S] | 2.5 | – | –
MASNDYTQQATQSYGAYPTQPGQGYSQQSSQPYGQQSYSGYSQSTDTSGYGQSSYSSYGQSQNTGYGTQSTPQGYGSTGGYGSSQSSQSSYGQQSSYPGYGQQPAPSSTSGSYGSSSQSSSYGQPQSGSYSQQPSYGGQQQSYGQQQSYNPPQGYGQQNQYNSSSGGGGGGGGGGNYGQDQSSMSSGGGSGGGYGNQDQSGGGGSGGYGQQDRGGRGRGGSGGGGGGGGGGYNRSSGGYEPRGCGGGRGGRGGMGGSDRGGFNKFGGPRDQGSRHDSEQDNSDNNTIFVQGLGENVTIESVADYFKQIGIIKTNKKTGQPMINLYTDRETGKLKGEATVSFDDPPSAKAAIDWFDGKEFSGNPIKVSFATRRADFNRGGGNGRGGRGRGGPMGRGGYGGGGSGGGGRGGFPSGGGGGGGQQRAGDWKCPNPTCENMNFSWRNECNQCKAPKPDGPGGGPGGSHMGGNYGDDRRGGRGGYDRGGYRGRGGDRGGFRGGRGGGDRGGFGPGKMDSRGEHRQDRRERPY [chain 1 R244C] | 2.1 | 2.1 | 2.1
MASNDYTQQATQSYGAYPTQPGQGYSQQSSQPYGQQSYSGYSQSTDTSGYGQSSYSSYGQSQNTGYGTQSTPQGYGSTGGYGSSQSSQSSYGQQSSYPGYGQQPAPSSTSGSYGSSSQSSSYGQPQSGSYSQQPSYGGQQQSYGQQQSYNPPQGYGQQNQYNSSSGGGGGGGGGGNYGQDQSSMSSGGGSGGGYGNQDQSGGGGSGGYGQQDRGGCGRGGSGGGGGGGGGGYNRSSGGYEPRGRGGGRGGRGGMGGSDRGGFNKFGGPRDQGSRHDSEQDNSDNNTIFVQGLGENVTIESVADYFKQIGIIKTNKKTGQPMINLYTDRETGKLKGEATVSFDDPPSAKAAIDWFDGKEFSGNPIKVSFATRRADFNRGGGNGRGGRGRGGPMGRGGYGGGGSGGGGRGGFPSGGGGGGGQQRAGDWKCPNPTCENMNFSWRNECNQCKAPKPDGPGGGPGGSHMGGNYGDDRRGGRGGYDRGGYRGRGGDRGGFRGGRGGGDRGGFGPGKMDSRGEHRQDRRERPY [chain 1 R216C] | 2.2 | 2.2 | 2.2
